Source: article PMC7820887 (Frontiers in Immunology, 2020)

T1: soluble extracellular domain of human IL-5 receptor alpha subunit (sIL-5Rα) (human, UniProt Q01344 21-333)
T1 chain: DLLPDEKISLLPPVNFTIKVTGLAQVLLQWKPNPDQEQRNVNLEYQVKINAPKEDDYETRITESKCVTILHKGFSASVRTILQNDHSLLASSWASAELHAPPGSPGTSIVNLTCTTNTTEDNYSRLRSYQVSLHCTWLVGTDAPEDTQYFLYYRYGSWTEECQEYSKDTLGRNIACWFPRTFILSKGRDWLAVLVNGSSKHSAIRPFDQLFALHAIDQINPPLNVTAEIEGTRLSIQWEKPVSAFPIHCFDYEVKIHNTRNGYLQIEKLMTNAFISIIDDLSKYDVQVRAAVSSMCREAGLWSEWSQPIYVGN


Key:
[1] = target: T2, soluble extracellular domain of human IL-5 receptor alpha subunit (sIL-5Rα) (human, UniProt Q01344); test: BLI; Octet QKe, 30°C, 1× kinetics buffer in PBS pH 7.4; Ab immobilised on anti-human IgG Fc capture (AHC) biosensors, sIL-5Rα as analyte; association 300 s, dissociation 600 s; 1:1 binding model; conditions: both partners purified
T2 construct: human IL-5 receptor alpha subunit (IL-5Rα, CD125), extracellular domain, residues 21–333; subcloned from a cDNA of residues 1–420; Expressed from the pSecTag2A vector; migrates at ~50 kDa (glycosylated); A biotinylated form (BirA) was used only for library screening; also called sIL-5α; CD125; source: HEK293F, transiently transfected, purified (Ni-NTA); not shown: Avi, C-terminal, kept; His6, …

[2] = target: T2, soluble extracellular domain of human …; test: ELISA; competitive: plates coated with IL-5-mFc (100 ng/well); sIL-5Rα (50 nM) added with anti–IL-5Rα Abs (0–1 µM), 25°C, 1 h; bound sIL-5Rα detected with HRP anti-His; conditions: both partners purified
[3] = target: T2, soluble extracellular domain of human …; test: cell-based or functional assay
[4] = target: T1, soluble extracellular domain of human …; test: ELISA; competition with plate-immobilized IL-5-mFc
insulin = target: T3, insulin (Homo sapiens (assumed), UniProt P01308); test: ELISA; plates coated at 25°C for 1 h with sIL-5Rα (50 ng/well) or off-target antigens (insulin 125 ng/well, hemocyanin 125 ng/well); Abs 8–200 nM in PBST pH 7.4 with 2% skim milk, 25°C, 1 h; detected with HRP anti-human Fc or anti-mouse Fc; conditions: both partners purified
T3 construct: insulin B chain; insulin A chain; Off-target antigen of the nonspecificity ELISA (125 ng/well)
T3 sequence (P01308 whole entry, looked up): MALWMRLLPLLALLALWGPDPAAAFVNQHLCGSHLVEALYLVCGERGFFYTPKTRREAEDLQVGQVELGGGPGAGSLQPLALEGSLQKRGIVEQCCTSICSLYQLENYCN

| Binder | Kd [1] | koff [1] | kon [1] | IC50 [2] | IC50 of inhibition of rhIL-5 (80 pM)-stimulated proliferation of TF-1/IL-5Rα cells, Abs 0 to 32 nM, 40 h (blocks IL-5 with IL-5Rα) [3] | IC50 [4] | binding result (insulin) | NK cell–mediated ADCC against peripheral eosinophils from healthy controls (autologous NK cells 1:5, Ab 1 μM, rhIL-5 100 pM, 20 h), fold against the benralizumab analogue [3] |
| --- | --- | --- | --- | --- | --- | --- | --- | --- |
| benralizumab analogue (antibody, V domains shown, VH of benralizumab, made by DNA synthesis; VL of benralizumab, made by DNA synthesis; Human IgG1, kappa; VH and VL identical to commercial benralizumab but with core fucose on the Fc N-glycan; also called benralizumab analogue (fucosylated human IgG1); source: HEK293F, transiently transfected, purified (Protein A)) VH: EVQLVQSGAEVKKPGASVKVSCKASGYTFTSYVIHWVRQRPGQGLAWMGYINPYNDGTKYNERFKGKVTITSDRSTSTVYMELSSLRSEDTAVYLCGREGIRYYGLLGDYWGQGTLVTVSS VL: DIQMTQSPSSLSASVGDRVTITCGTSEDIINYLNWYQQKPGKAPKLLIYHTSRLQSGVPSRFSGSGSGTDFTLTISSLQPEDFATYYCQQGYTLPYTFGQGTKVEIK | 26.8 ± 0.52 nM | 0.0011 s⁻¹ | 41100 M⁻¹ s⁻¹ | ~9.8 nM | ~1.99 nM |  |  |  |
| 5R68 (antibody, V domains shown, Human IgG1, kappa; selected as scFab by yeast display from the hu2B7 VH-CDR2 library; source: HEK293F, purified (Protein A)) VH: QVQLVQSGAEVKKPGSSVKVSCKASGYTFTSYWINWVRQAPGQGLEWIGHIYPTATIAVYNDKFKDKATLTVDKSTNTAYMELSSLRSEDTAVYYCTRDYYGRSYYYAMDYWGQGTTLTVSS VL: DIQMTQSPSTLSASVGDRVTITCKASQNVGTAVAWYQQKPGKAPKLLIYWASTRHTGVPDRFSGSGSGTDFTLTISSLQPDDFATYYCQQFGRYPYTFGSGTKVEVK | 24.1 ± 0.47 nM | 0.000566 s⁻¹ | 23500 M⁻¹ s⁻¹ |  |  | 28.8 nM | no binding (tested: 100 nM) |  |
| 5R65.10 (antibody, V domains shown, as the VH of m6 (5R65) with mutations in VH-CDR3 (Kabat residues 95–100d were randomised); no mutations in VL-CDR3; Human IgG1, kappa; selected as scFab by yeast display from the 5R65 CDR3 library under kinetic screening; source: HEK293F, purified (Protein A)) VH: QVQLVQSGAEVKKPGSSVKVSCKASGYTFTSYWINWVRQAPGQGLEWIGHIYPNKNENYYNHKFKDKATLTVDKSTNTAYMELSSLRSEDTAVYYCTREYYGRSYYAAMDYWGQGTTLTVSS VL: DIQMTQSPSTLSASVGDRVTITCKASQNVGTAVAWYQQKPGKAPKLLIYWASTRHTGVPDRFSGSGSGTDFTLTISSLQPDDFATYYCQQFGRYPYTFGSGTKVEVK | 8.25 ± 0.4 nM | 0.000201 s⁻¹ | 24400 M⁻¹ s⁻¹ |  |  |  |  |  |
| 5R65.45 (antibody, V domains shown, as the VH of m6 (5R65) with mutations in VH-CDR3 (Kabat residues 95–100d were randomised); no mutations in VL-CDR3; Human IgG1, kappa; selected as scFab by yeast display from the 5R65 CDR3 library under kinetic screening; source: HEK293F, purified (Protein A)) VH: QVQLVQSGAEVKKPGSSVKVSCKASGYTFTSYWINWVRQAPGQGLEWIGHIYPNKNENYYNHKFKDKATLTVDKSTNTAYMELSSLRSEDTAVYYCTREYYGRSYYNAMDYWGQGTTLTVSS VL: DIQMTQSPSTLSASVGDRVTITCKASQNVGTAVAWYQQKPGKAPKLLIYWASTRHTGVPDRFSGSGSGTDFTLTISSLQPDDFATYYCQQFGRYPYTFGSGTKVEVK | 7.26 ± 0.36 nM | 0.000181 s⁻¹ | 24900 M⁻¹ s⁻¹ |  |  |  |  |  |

The remaining binders from weak to strong by Kd [1], led by results:

| Kd [1] | koff [1] | kon [1] | IC50 [2] | IC50 of inhibition of rhIL-5 (80 pM)-stimulated proliferation of TF-1/IL-5Rα cells, Abs 0 to 32 nM, 40 h (blocks IL-5 with IL-5Rα) [3] | IC50 [4] | binding result (insulin) | NK cell–mediated ADCC against peripheral eosinophils from healthy controls (autologous NK cells 1:5, Ab 1 μM, rhIL-5 100 pM, 20 h), fold against the benralizumab analogue [3] | Binder |
| --- | --- | --- | --- | --- | --- | --- | --- | --- |
| 40.2 ± 0.84 nM | 0.000834 s⁻¹ | 20700 M⁻¹ s⁻¹ |  |  |  |  |  | m2B7 murine anti–IL-5Rα antibody (antibody, V domains shown, VH of murine m2B7; FRs of mouse germline IGHV1-61*01; VL of murine m2B7; FRs of mouse germline IGKV6-23*01; source: hybridoma supernatant, expanded and purified) VH: QVQLQQPGAELVRPGASVKLSCKASGYTFTSYWINWVKQRPGQGLEWIGHIYPSESYTNYNQKFKDKATLTVDKSSSTAYMQLSSPTSEDSAVYYCTRDYYGRSYYYAMDYWGQGTSVTVSS VL: DIVMTQSHKFMSTSVGDRVSITCKASQNVGTAVAWYQQKPGQSPKLLIYWASTRHTGVPDRFTGSGSGTDFTFTISNVQSEDLADYFCQQFGRYPYTFGGGTKLEIK |
| 14.5 ± 0.29 nM | 0.000329 s⁻¹ | 22700 M⁻¹ s⁻¹ | ~9.5 nM | ~11.8 nM |  | no binding (tested: 100 nM) | ~1.5 fold | 5R65 (antibody, V domains shown, Human IgG1, kappa; selected as scFab by yeast display from the hu2B7 VH-CDR2 library; also called 5R65 Ab; source: HEK293F, purified (Protein A)) VH: QVQLVQSGAEVKKPGSSVKVSCKASGYTFTSYWINWVRQAPGQGLEWIGHIYPNKNENYYNHKFKDKATLTVDKSTNTAYMELSSLRSEDTAVYYCTRDYYGRSYYYAMDYWGQGTTLTVSS VL: DIQMTQSPSTLSASVGDRVTITCKASQNVGTAVAWYQQKPGKAPKLLIYWASTRHTGVPDRFSGSGSGTDFTLTISSLQPDDFATYYCQQFGRYPYTFGSGTKVEVK |
